The target of this test is unmodified guanylate-binding protein 1 (hGBP1) (human) (UniProt P32455). Nature of the test: concentration-dependent GTPase activity.

The substance “unmodified guanylate-binding protein 1 (hGBP1) (from UniProt P32455 1-592) (enzyme)” had a Kd of 4 µM.

A word on the Kd: it is the concentration at which binding is half-saturated.

The values are drawn from publication PMC2903825.
